Measured values from article PMC13313556, “Development and characterization of triazole-based WDR5 inhibitors for the treatment of glioblastoma” (JCI Insight, 2026).

Biological target: His6-SUMO-WDR5 (recombinant human WD-repeat containing protein 5, residues Ser22-Cys334) (human, UniProt P61964 22-334)
Test: AlphaScreen or HTRF; competitive TR-FRET: 1 nM LanthaScreen Elite Tb-anti-His antibody, 150 nM 10-mer-Thr-FAM peptide, 2 nM His6-SUMO-WDR5 in 1X PBS pH 7.2, 300 mM NaCl, 0.5 mM TCEP, 0.1% CHAPS; 1 hour at room temperature; small-molecule inhibitors titrated to displace the peptide
Conditions: both partners purified

B1: 10-mer-Thr-FAM peptide probe (ARTEVHLRKS-[Ahx-Ahx][Lys-(5-FAM)]) (peptide)
peptide: ARTEVHLRKS
modifications: C-terminal Ahx-Ahx followed by Lys-(5-FAM)
notes: WIN-site peptide probe; After the ten printed residues come two aminohexanoic acid (Ahx) units and a lysine that carries 5-FAM; also called labeled WIN-site peptide; labeled WIN-peptide; source: synthetic peptide (GenScript)
B1: binds.
